From US20230340154A1 (Hoffmann-La Roche, published 2023)

Molecular target: T1, murine CD40 (mouse, UniProt P27512 20-289)
T1 construct: Endogenous CD40 on cells in the tumor microenvironment of C57BL/6J mice; also called mouse CD40; muCD40
T1 sequence: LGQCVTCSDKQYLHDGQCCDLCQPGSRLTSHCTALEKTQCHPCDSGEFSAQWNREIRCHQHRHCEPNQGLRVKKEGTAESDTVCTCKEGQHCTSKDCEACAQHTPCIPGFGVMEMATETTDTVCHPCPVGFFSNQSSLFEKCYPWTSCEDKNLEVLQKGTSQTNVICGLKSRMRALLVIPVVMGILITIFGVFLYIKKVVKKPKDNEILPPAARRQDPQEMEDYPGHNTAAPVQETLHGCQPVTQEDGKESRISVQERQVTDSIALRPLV
Test: in vivo fluorescence imaging of the Alexa647-labelled antibody in TC-1 tumors (devoid of FAP expression), four days after i.p. injection
Source text: To assess FAP-CD40 antibody access to the TC-1 tumor, we intraperitoneally injected the anti-FAP-CD40 antibody labeled with Alexa647 into TC-1 and mEERL95 tumor-bearing mice that underwent local irradiation. The antibody was detectable in both tumors four days upon administration. No significant difference in the fluorescence intensity was detected in both TC-1 and mEERL95 tumors (FIG. 4H) which present similar CD40 mRNA expression levels (FIG. 4C).

B1: muCD40 x FAP (28H1) 4+1 bispecific antibody (VH on knob and VL on hole) (P1AD9139) (bispecific antibody)
light: DTVLTQSPALAVSPGERVTISCRASDSVSTLMHWYQQKPGQQPKLLIYLASHLESGVPARFSGSGSGTDFTLTIDPVEADDTATYYCQQSWNDPWTFGGGTKLELKRTVAAPSVFIFPPSDEQLKSGTASVVCLLNNFYPREAKVQWKVDNALQSGNSQESVTEQDSKDSTYSLSSTLTLSKADYEKHKVYACEVTHQGLSSPVTKSFNRGEC
heavy 1: not shown
heavy 2: EVQLVESDGGLVQPGRSLKLPCAASGFTFSDYYMAWVRQAPTKGLEWVASISYDGSSTYYRDSVKGRFTISRDNAKSTLYLQMDSLRSEDTATYYCGRHSSYFDYWGQGVMVTVSSASTKGPSVFPLAPSSKSTSGGTAALGCLVKDYFPEPVTVSWNSGALTSGVHTFPAVLQSSGLYSLSSVVTVPSSSLGTQTYICNVNHKPSNTKVDKKVEPKSCDGGGGSGGGGSEVQLVESDGGLVQPGRSLKLPCAASGFTFSDYYMAWVRQAPTKGLEWVASISYDGSSTYYRDSVKGRFTISRDNAKSTLYLQMDSLRSEDTATYYCGRHSSYFDYWGQGVMVTVSSASTKGPSVFPLAPSSKSTSGGTAALGCLVKDYFPEPVTVSWNSGALTSGVHTFPAVLQSSGLYSLSSVVTVPSSSLGTQTYICNVNHKPSNTKVDKKVEPKSCDKTHTCPPCPAPEAAGGPSVFLFPPKPKDTLMISRTPEVTCVVVDVSHEDPEVKFNWYVDGVEVHNAKTKPREEQYNSTYRVVSVLTVLHQDWLNGKEYKCKVSNKALGAPIEKTISKAKGQPREPQVCTLPPSRDELTKNQVSLSCAVKGFYPSDIAVEWESNGQPENNYKTTPPVLDSDGSFFLVSKLTVDKSRWQQGNVFSCSVMHEALHNHYTQKSLSLSPGGGGGSGGGGSGGGGSGGGGSEIVLTQSPGTLSLSPGERATLSCRASQSVSRSYLAWYQQKPGQAPRLLIIGASTRATGIPDRFSGSGSGTDFTLTISRLEPEDFAVYYCQQGQVIPPTFGQGTKVEIK
notes: Four anti-mouse CD40 (FGK4.5) Fabs, human IgG1 P329G LALA knob-into-hole Fc, and 28H1 VH on the knob chain and VL on the hole chain; That paragraph says only 'anti-FAP-CD40 antibody'; also called FAP-CD40; anti-FAP-CD40
  binding result: binds
